The experiment has as its target VCP (UniProt P55072). The experiment in a line: BLI, VCP immobilized on anti-HIS sensor, analyte in Tris pH 8.4, multivalent. A general note: BLI is a label-free optical method that tracks binding on a fibre tip over time.

Where no end group is shown, it is not given here.

VCP, sequence (P55072 2-806): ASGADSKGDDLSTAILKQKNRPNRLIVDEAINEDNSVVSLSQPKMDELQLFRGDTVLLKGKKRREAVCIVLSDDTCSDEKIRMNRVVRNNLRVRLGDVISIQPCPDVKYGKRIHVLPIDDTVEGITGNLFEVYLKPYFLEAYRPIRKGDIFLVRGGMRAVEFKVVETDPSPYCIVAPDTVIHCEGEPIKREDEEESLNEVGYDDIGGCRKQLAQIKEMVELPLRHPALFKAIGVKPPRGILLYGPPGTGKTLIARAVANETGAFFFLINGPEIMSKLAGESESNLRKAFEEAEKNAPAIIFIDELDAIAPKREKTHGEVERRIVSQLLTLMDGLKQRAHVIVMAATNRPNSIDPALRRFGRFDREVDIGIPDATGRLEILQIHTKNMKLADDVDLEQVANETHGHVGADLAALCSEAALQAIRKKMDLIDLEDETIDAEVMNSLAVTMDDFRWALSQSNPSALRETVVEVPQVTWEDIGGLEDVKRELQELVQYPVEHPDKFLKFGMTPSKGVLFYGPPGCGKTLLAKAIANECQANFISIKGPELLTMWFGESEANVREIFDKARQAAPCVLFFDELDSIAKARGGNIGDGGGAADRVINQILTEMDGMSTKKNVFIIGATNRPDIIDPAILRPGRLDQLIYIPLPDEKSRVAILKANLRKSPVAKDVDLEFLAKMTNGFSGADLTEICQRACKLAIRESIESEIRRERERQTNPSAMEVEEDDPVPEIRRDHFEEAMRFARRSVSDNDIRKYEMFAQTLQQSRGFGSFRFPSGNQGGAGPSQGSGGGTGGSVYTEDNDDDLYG

B1: P1 (peptide)
chain: HVLVMSATRR
modifications: not fully specified (N-terminus); also: multivalent polymer conjugate
A word on the Kd: it is a measure of binding affinity in units of concentration. High values mean lower affinity, low ones higher affinity. The molecule B1 displayed a Kd of 92 nM. This lies in the double-digit nanomolar range.
